From paper PMC2731815

Assays:
[1] = molecular target: Fl-FPR-inhibited thrombin (UniProt P00734); assay: other fluorescence titration
[2] = molecular target: thrombomodulin fragment 4-6 (TM4-6); assay: competition in a kinetic assay

| Substance | Kd [1] [nM] | Kd [2] [nM] |
| --- | --- | --- |
| thrombomodulin fragment 4-6 (TM4-6) (domain or fragment) | 3.5 | – |
| Ser-195 to Ala (S195A) substitution mutant of thrombin (from UniProt P00734 44-622) (enzyme) | – | 9 |
